Experimental data published in article doi:10.1101/590646.

Target: SERINC5-VN-HA (human) (UniProt Q86VE9)
Assay: split reporter

Sequence of UniProt Q86VE9 (Q86VE9 whole entry): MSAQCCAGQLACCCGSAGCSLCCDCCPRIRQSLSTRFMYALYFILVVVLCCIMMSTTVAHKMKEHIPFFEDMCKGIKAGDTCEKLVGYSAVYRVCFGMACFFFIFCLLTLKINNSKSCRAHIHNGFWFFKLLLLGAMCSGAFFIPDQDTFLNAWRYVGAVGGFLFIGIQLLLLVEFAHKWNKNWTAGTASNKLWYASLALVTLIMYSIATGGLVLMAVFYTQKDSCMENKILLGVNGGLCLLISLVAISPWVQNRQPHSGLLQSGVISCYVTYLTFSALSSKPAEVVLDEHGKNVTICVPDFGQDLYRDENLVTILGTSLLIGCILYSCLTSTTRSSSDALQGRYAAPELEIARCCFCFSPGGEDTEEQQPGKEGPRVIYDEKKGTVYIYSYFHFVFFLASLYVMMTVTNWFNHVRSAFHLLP

Substance “Nef_(NL43)-V5-VC (HIV-1 NL4-3 Nef fused to a Venus fragment) (natural protein)” has a fold increase in BiFC fluorescence over the singly expressed constructs of 4 fold.
